Assay results reported in US20210002358A1 (Janssen / Centocor, published 2021).

Target: T1, soluble tau (control tau, recombinant 2N4R tau, SEQ ID NO: 31) (human, UniProt P10636 2-758)
T1 construct: also called Sol-tau; recombinant WT tau
Test: direct ELISA on 2N4R Tau coated at 1 ng/mL
Experimental: Binding to recombinant WT (2N4R; SEQ ID NO:31) tau was analyzed by ELISA where full-length Tau protein (1 ng/mL or 10 ng/mL) was directly coated to the plate and incubated with different concentrations of either recombinantly- or hybridoma produced PT82 antibody (FIG. 2). After incubation with antibodies, plates were again washed and 50 μL per well of HRPO labelled anti-mouse antibody (GE Healthcare) (diluted 1:10000 in blocking buffer) was added. After another washing step detection was performed with “One step” TMB (Thermo Scientific) according to the manufacturers' instructions. Plates were analysed in EnVision® 2102 Multilabel Reader (Perkin Elmer, Waltham, Mass., USA). Binding curves were generated using GraphPad Prism7.0 software. […] No substantial difference has been observed between binding profiles of recombinant and hybridoma produced antibodies.

T1 sequence (P10636 other isoform, or with tags, fused parts or gaps limits assumed): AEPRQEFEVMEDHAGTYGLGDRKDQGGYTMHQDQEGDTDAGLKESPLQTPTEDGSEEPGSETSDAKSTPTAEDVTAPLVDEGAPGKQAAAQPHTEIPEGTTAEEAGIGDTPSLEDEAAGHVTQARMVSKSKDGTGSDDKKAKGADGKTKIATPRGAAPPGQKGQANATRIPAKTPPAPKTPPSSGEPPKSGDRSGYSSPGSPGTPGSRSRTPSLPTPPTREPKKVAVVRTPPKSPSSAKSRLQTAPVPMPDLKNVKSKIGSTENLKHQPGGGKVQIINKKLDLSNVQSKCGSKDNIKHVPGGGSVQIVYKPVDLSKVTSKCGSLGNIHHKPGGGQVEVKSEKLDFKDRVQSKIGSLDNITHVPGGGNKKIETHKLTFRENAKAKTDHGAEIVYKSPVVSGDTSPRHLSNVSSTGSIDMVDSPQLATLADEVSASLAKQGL

B1: PT82 mAb (recombinantly expressed, mouse IgG2a/kappa) (antibody, V domains shown)
VH: EVKLEESGGGLVQPGGSMKLSCVASGFTFSNYWMNWIRQSPEKGLEWVAQIRLQSDNYATRYAESVKGRFTISRDESKTSVYLQMNNLRTEDTGIYYCTGGTTYWGQGTLVTVSA
VL: DIVMTQSQKFMSTSVGDRVSITCKASQNVGTAVAWYQQKPGQSPKLLIYSASIRYTGVPDRFTGSGSGTDFTLTINYMQSEDLADYFCQQFSSYPYTFGGGTKLEIK
notes: also called recombinant PT82; mouse PT82
Q: With B1 as the binder, how does the “EC50 (read off the curve)” value read?
A: ~40 ng/mL
